Experimental data taken from publication PMC10656236 (The Journal of Biological Chemistry, 2023).

Target: cohesin-NIPBL^c subcomplex containing SMC1, SMC3, RAD21 and NIPBL^c (no SA1) (human, UniProt Q14683;Q9UQE7;O60216;Q6KC79)
Assay: reconstitution by mixing, AFM imaging in air

cohesin-NIPBL^c subcomplex containing SMC1, SMC3, RAD21 and NIPBL^c (no SA1), sequence (Q14683 whole entry, chain 1 of 4): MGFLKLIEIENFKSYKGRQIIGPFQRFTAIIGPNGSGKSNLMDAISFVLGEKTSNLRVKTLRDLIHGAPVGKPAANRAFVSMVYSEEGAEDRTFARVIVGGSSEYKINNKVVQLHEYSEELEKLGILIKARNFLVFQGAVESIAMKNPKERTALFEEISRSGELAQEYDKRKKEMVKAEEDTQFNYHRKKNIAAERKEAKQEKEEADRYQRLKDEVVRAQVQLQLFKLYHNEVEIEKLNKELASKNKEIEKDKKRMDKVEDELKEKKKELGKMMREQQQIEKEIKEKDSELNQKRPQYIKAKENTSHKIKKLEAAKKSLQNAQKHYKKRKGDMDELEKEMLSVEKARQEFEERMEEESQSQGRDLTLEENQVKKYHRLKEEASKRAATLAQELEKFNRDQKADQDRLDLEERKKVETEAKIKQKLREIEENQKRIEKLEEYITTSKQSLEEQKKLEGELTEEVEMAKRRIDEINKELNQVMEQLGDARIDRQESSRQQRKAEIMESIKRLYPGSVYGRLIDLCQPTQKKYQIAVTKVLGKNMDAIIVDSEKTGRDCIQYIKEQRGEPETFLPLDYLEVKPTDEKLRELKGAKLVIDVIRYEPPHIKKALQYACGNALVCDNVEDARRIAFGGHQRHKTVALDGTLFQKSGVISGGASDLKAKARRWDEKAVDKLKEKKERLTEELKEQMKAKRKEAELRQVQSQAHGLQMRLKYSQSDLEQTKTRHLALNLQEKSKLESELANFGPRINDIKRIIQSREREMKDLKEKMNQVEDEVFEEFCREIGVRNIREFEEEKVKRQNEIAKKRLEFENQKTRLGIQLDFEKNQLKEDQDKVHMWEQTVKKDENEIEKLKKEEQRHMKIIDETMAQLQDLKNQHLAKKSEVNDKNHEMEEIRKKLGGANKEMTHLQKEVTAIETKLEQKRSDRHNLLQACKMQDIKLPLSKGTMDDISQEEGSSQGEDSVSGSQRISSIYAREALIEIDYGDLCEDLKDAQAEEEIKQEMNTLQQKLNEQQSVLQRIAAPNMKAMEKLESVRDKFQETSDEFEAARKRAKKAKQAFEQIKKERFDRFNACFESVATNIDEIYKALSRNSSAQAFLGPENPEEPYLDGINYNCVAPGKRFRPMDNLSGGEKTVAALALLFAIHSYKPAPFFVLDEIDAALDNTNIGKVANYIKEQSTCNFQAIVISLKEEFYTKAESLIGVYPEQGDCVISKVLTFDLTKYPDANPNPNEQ
cohesin-NIPBL^c subcomplex containing SMC1, SMC3, RAD21 and NIPBL^c (no SA1), sequence (Q9UQE7 whole entry, chain 2 of 4): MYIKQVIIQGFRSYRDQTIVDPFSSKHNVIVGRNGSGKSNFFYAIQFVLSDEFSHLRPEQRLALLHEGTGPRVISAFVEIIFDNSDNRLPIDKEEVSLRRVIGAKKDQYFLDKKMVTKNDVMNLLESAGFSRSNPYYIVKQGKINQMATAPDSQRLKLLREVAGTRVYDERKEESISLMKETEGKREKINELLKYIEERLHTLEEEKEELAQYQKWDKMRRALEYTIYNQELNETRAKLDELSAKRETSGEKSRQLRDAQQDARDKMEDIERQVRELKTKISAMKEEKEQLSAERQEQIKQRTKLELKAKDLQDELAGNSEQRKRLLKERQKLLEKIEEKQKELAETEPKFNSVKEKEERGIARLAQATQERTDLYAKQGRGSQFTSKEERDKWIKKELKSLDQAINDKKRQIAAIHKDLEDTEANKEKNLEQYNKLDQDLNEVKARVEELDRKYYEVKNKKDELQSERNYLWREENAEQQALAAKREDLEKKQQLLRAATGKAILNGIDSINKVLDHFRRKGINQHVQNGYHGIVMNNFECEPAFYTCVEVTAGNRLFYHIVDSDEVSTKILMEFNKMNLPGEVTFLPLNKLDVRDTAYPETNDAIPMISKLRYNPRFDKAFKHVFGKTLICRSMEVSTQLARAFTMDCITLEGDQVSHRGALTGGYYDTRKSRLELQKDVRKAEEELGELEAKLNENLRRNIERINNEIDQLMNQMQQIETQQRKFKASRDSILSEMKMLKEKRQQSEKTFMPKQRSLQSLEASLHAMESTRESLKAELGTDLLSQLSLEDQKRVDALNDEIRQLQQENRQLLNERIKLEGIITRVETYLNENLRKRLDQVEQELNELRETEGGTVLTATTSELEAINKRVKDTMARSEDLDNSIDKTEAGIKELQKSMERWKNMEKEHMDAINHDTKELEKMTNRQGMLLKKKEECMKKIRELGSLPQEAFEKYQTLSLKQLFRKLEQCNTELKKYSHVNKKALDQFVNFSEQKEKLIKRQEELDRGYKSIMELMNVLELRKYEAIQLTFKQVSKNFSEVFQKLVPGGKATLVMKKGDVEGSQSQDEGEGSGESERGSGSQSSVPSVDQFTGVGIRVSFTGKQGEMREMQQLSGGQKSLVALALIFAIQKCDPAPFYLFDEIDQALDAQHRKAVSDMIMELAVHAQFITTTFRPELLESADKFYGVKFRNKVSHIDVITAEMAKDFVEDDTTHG
cohesin-NIPBL^c subcomplex containing SMC1, SMC3, RAD21 and NIPBL^c (no SA1), sequence (O60216 whole entry, chain 3 of 4): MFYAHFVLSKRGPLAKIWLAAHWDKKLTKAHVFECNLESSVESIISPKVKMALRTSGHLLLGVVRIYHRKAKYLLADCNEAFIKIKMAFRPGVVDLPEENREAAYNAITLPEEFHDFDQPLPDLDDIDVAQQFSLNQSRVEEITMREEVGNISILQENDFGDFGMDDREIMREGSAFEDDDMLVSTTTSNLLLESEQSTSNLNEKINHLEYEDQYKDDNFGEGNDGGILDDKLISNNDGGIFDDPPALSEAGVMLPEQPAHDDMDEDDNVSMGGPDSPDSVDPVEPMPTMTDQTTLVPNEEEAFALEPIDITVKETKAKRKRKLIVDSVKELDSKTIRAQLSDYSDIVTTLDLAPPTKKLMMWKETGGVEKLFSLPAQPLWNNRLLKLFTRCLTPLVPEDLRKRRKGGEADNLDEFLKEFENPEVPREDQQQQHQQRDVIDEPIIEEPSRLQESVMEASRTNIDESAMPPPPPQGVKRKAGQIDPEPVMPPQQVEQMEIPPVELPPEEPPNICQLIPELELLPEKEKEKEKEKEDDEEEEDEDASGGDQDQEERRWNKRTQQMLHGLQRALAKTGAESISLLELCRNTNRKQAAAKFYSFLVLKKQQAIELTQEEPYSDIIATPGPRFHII
cohesin-NIPBL^c subcomplex containing SMC1, SMC3, RAD21 and NIPBL^c (no SA1), sequence (Q6KC79 1163-2804, chain 4 of 4): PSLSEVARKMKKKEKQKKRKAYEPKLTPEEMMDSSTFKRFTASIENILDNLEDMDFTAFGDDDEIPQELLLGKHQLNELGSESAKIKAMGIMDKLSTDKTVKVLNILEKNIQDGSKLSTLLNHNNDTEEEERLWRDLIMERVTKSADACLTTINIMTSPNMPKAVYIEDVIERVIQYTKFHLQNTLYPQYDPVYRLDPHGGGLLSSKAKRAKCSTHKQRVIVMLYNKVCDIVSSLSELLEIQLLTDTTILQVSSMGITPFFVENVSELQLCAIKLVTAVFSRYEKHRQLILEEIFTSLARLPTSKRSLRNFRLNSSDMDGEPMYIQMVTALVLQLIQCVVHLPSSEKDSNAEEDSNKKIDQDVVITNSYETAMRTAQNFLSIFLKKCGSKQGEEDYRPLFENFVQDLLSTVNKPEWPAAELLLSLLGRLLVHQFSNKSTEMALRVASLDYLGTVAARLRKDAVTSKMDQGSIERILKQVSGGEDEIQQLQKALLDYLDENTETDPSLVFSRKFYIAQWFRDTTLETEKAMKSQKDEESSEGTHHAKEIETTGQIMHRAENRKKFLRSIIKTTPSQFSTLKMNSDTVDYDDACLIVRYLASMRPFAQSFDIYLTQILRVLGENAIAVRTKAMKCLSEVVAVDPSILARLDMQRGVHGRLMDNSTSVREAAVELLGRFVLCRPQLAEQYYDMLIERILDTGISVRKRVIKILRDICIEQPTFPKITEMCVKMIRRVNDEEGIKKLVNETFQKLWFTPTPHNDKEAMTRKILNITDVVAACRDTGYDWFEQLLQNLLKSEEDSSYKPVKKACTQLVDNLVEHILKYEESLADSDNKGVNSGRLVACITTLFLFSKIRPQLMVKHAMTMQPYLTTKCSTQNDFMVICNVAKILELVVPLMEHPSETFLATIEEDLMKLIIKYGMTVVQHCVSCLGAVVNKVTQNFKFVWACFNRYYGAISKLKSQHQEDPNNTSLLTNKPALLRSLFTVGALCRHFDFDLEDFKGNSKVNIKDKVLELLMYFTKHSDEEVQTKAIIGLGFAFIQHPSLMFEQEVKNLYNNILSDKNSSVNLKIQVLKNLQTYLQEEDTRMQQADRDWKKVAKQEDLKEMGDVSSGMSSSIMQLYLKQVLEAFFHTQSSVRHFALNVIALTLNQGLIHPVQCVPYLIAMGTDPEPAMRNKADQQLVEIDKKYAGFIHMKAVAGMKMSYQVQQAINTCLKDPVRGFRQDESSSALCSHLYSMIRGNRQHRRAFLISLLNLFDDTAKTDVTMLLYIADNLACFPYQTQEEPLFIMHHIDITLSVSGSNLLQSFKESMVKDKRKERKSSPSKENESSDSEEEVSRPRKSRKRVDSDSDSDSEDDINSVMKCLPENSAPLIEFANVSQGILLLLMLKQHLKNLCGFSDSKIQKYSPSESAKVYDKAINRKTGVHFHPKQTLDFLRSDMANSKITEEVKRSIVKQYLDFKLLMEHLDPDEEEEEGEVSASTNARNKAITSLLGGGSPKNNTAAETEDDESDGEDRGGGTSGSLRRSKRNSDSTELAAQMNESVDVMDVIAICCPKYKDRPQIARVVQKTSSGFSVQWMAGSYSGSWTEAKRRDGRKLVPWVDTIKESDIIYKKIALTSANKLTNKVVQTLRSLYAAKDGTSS

B1: SA1dc (SA1 1-1054 AAs, without its C terminus) (domain or fragment)
chain: MITSELPVLQDSTNETTAHSDAGSELEETEVKGKRKRGRPGRPPSTNKKPRKSPGEKSRIEAGIRGAGRGRANGHPQQNGEGEPVTLFEVVKLGKSAMQSVVDDWIESYKQDRDIALLDLINFFIQCSGCRGTVRIEMFRNMQNAEIIRKMTEEFDEDSGDYPLTMPGPQWKKFRSNFCEFIGVLIRQCQYSIIYDEYMMDTVISLLTGLSDSQVRAFRHTSTLAAMKLMTALVNVALNLSIHQDNTQRQYEAERNKMIGKRANERLELLLQKRKELQENQDEIENMMNSIFKGIFVHRYRDAIAEIRAICIEEIGVWMKMYSDAFLNDSYLKYVGWTLHDRQGEVRLKCLKALQSLYTNRELFPKLELFTNRFKDRIVSMTLDKEYDVAVEAIRLVTLILHGSEEALSNEDCENVYHLVYSAHRPVAVAAGEFLHKKLFSRHDPQAEEALAKRRGRNSPNGNLIRMLVLFFLESELHEHAAYLVDSLWESSQELLKDWECMTELLLEEPVQGEEAMSDRQESALIELMVCTIRQAAEAHPPVGRGTGKRVLTAKERKTQIDDRNKLTEHFIITLPMLLSKYSADAEKVANLLQIPQYFDLEIYSTGRMEKHLDALLKQIKFVVEKHVESDVLEACSKTYSILCSEEYTIQNRVDIARSQLIDEFVDRFNHSVEDLLQEGEEADDDDIYNVLSTLKRLTSFHNAHDLTKWDLFGNCYRLLKTGIEHGAMPEQIVVQALQCSHYSILWQLVKITDGSPSKEDLLVLRKTVKSFLAVCQQCLSNVNTPVKEQAFMLLCDLLMIFSHQLMTGGREGLQPLVFNPDTGLQSELLSFVMDHVFIDQDEENQSMEGDEEDEANKIEALHKRRNLLAAFSKLIIYDIVDMHAAADIFKHYMKYYNDYGDIIKETLSKTRQIDKIQCAKTLILSLQQLFNELVQEQGPNLDRTSAHVSGIKELARRFALTFGLDQIKTREAVATLHKDGIEFAFKYQNQKGQEYPPPNLAFLEVLSEFSSKLLRQDKKTVHSYLEKFLTEQMMERREDVWLPLISYRNSLVT
B1: binds.
